Assay: label from the status in PepcDB records

Sequence	protein production
MSSKRPPAPPPPIPGFKYISLLGSGGFSDVYLYEQDRPRRKVAVKVLLSDLKTEGARRRFESEANLMAQLSSHPYIVTIFEAEITETGHSYLAMEYCSRPSLDVRYRRQRFSVDEVLAVGIQVASAVETAHRAGIVHRDIKPANILVTDYNRPALTDFGISGTIGADTEDDAGMSIPWSPPEQFRGGAVDGVPVDIWALGATLYTLLAGRSPFVLPGQDNSQRELISRITNSPLPRLGRADVPESLELVLATSMAKSPESRYSSAHAFALALQRIQAELNLSVTPFEVLEEPGHGDDQHPDDNFEETRVRSIASIDPDASGTATTGSAPTFPARTFPTTATGASGQPTQPQSLPTSRPQPTNPPQTVQSHAGSSAPPQFHAPAPGSYTAPGSYTAPGTYTAPGTYRASGSHNATAEPDTAESTVLRGWQPSRPQDDLGATVSRSNSPAGASPATREDARPADHSKRNLWLAATGAAVLVVAIVVGVVLGAQAQPKVVPTEAASKPPADALGDGSVPDVEGLIGVKDPEKPDFADFRWTNPQPQSGDMYMWRYRTALIPEGDYEAVTEPHARPYFGGEKQLCIQVIIVRRDGTSSPGDTGSIACVDQ	failed
MSSLFVVGIGPGSNDLMTPQASLAIERSEYVIGFSLYVSFIKEKFPNKIYISNGMQGEIERAKKAIELARSGHNVSIISSGDAGIYGIAGAVFEILSTLEDNMPEVSVVPGIS	not failed
MSSLILSTFAERLTELGQRTTFLELPPYLDRSFPNSNSGKVVQVGKYLPPEVKHKAVDLLREYKDV	failed
MSSLKGHPKGLYLIFATSTAERFSYYGMRAIFILFLTQALLFDKEAAASIYGSYTGLVYLTPLIGGYIADKYWGIRRSVFWGAVMMAVGQFLMFMSASSLNNTDLAHWLMYGGLGFMILGNGCFKPTVSSLVGQLYEPGDKRLDAAYTIFYMGVNVGSFAAPLICGFLGDTGNPQDFKWGFLASGIMTLFTVVLFETQKNKYLFSPSGEPIGIVPDARREKKEDKAEHISHPKMDKRTKVRNIIIITALTVALIAFFSYAFSDDWISVGIFTACIVFPVLILLDGSLTKVERSRIFVIYIVAFFVIFFWAAYEQAGASLTLFASEQTDRSIFGWEMPASWFQSFNPLFVVILAYIMPGIWGFLNKRNMEPASPTKQAIGLLLLSLGYLFICFGVKDAIPGVKVSMIWLTGLYFIHTMGEIALSPIGLSMVNKLSPLRFASLMMGIWYLSTATANKFAGMLSGLYPEDGKVKSILGYQIATMYDFFMLFVIMSGVASLILFLLSKKLQKMMHGVE	failed
MSSNPLRFFVLTIFPHIISCYSEYGIVKQAIKKGKVEVYPIDLREFAPKGQVDDVPYGGLPGMVLKPEPIYEAYDYVVENYGKPFVLITEPWGEKLNQKLVNELSKKERIMIICGRYEGVDERVKKIVDMEISLGDFILSGGEIVALAVIDAVSRVLPGVLSEPQSIQEDSFQNRWLGYPVYTRPREYRGMKVPEELLSGHHKLIELWKLWHRIENTVKKRPDLIPKDLTELEKDILNSILSGKSFKEWLKEHKHLL	not failed
MSSNVPADMINLRLILVSGKTKEFLFSPNDSASDIAKHVYDNWPMDWEEEQVSSPNILRLIYQGRFLHGNVTLGALKLPFGKTTVMHLVARETLPEPNSQGQRNR	failed
MSSPNPEDVPRRPEPEPSSSNKKKKKRKWLRQEASIQALTRAGHGALQAGQNHEALNNFQRAFLLASKAPQTRDTPVLQACAFNLGAAYVETGDPARGLELLLRAHPEEKAQGRRHGDQCFNVALAYHALGELPQALAWYHRALGHYQPQGDQGEAWAKMGACYQALGQPELAAHCLQEASQAYAQERQLRAAALALGAAAGCMLKSGRHRVGEVVQVLEKSRRLAERSTERRLLGHLYNDLGLGYSQLQLFPLAVEAFLQALPLCWVPGEQATVLRNLGMAHNALGNYQEAREFHQKAADLHGSVGQRWEQGRSFGSLAFALSQLGDHKAARDNYLHALQAARDSGDMKGQWQACEGLGAAAARLGQYDQALKYYKEALAQCQKEPDSVRERLVAKLADTVRTRLAQVGLVQTHTLTSAPGRLQAPGGASQAEGTPAKAGSSTAGVQHRSSSGWEDEEFEEGHQKKKEERSANVPVRAGPGRPELCFLPGTVNHSHHLASSCPTFTKHTPCRGTVLGKASIYSPGPRAHLPFVGPGPPRAEYPSILVPNGPQANRSSRWPRESLSRSRQRRPMESGICTIV	failed
MSSRKIGLNLVVIVALAALFTGIWALYNRPVSVPDWPERISGFSFSPFRLNQNPQSGRYPSAEQMRTDLELVARHTHSIRTYSVQGALGDIPALAEAFGLRVSLGIWLGPDLASNEAEIARAIRIANESPSVVRVIVGNEALFRREVTAEQLIAYLDRVRAAVKVPVTTAEQWHVYREHPELAQHVDLIAAHVLPYWEATPVADAVDFVLERARELKAAFPRKPLLLAEVGWPSNGRMRGSAEATPADQAIYLRRLTNALNGEGYSYFVIEAFDQPWKVSAEGSVGAYWGVYNADRKAKFNFTGPVVPIPKWRALAIASAVLAVLAFTLLLIDSSSLRQRGRTFLAVVSFACASVLVWIAYDYSQQYSTWFSLTVGALLGVGALGVVIVLFTEAHELAEAVWTRKRRRPFLPITAARAYRPKVSIHVPCYNEPPELLKQTLDALARLDYPDYEVLVIDNNTRDPAVWQPVEAHCARLGERFRFFHVAPLEGFKAGALNFALGHVAADVEVVAVIDADYCVDPDWLRHMVPHFGDPRIAVVQSPQDYRDQHESAFKRLCYAEYKGFFHIGMVTRNDRDAIIEHGTMTMIRRSVLDELRWPEWCITEDAELGLRVFEKGLSAAYFERSYGKGVMPDTFIDFKKQRFRWAYGAIQIMKRHTDALLRGRGPDGSRLTRGQRYHFVAGWLPWIADGLNIFFTLGALLWSAAMIIVPKRVDPPLLIFAILPLALFVFKVGKILFLYRRTVGVDLRDSFFAALAGLSLSHTIAKAVLYGFVTRGIPFFRTPKMRSSHGLLVALAEAREEVFVMLLLWGAAAGIVAVQGVPSRDLLIWVAMLLVQSLPYLAALVMALLSSLPKPREELAGGAEQIGG	failed
MSSRPQREKSMTALTQHAPVLEIYQDIANLTSRMLAAANASNWDLVLNHGQEYVCLVERLRELEPGEPLDEAARGMKFDLLVRILENDAAVRDLALPQLARLSDLLGRMKRQQSLLATYSGKANGT	not failed
MSSRTVLAPGNDRNSDTHGTLGSGRSSDKGPSWSSRSLGARCRNSIASCPEEQPHVGNYRLLRTIGKGNFAKVKLARHILTGREVAIKIIDKTQLNPSSLQKLFREVRIMKGLNHPNIVKLFEVIETEKTLYLVMEYASAGEVFDYLVSHGRMKEKEARAKFRQIVSAVHYCHQKNIVHRDLKAENLLLDAEANIKIADFGFSNEFTLGSKLDTFCGSPPYAAPELFQGKKYDGPEVDIWSLGVILYTLVSGSLPFDGHNLKELRERVLRGKYRVPFYMSTDCESILRRFLVLNPAKRCTLEQIMKDKWINIGYEGEELKPYTEPEEDFGDTKRIEVMVGMGYTREEIKESLTSQKYNEVTATYLLLGRKTEEGGDRGAPGLALARVRAP	failed
MSSRWEGIDEFVAVAESGQFTAAAERLGVSSSHISRQIARLEDRLQTRLLYRSTRRVTLSEAGQTFLQHCQRLQDGREEALRAMGDLASEPKGLLRMTCAVAYGERFIVPLVTRFMALYPQLRVDVELSNHTLDLLHEGMDLAIRLGRLADSRLVATRLAPRRMYLCVSPAYLERYGRPHSLSELARHNCLVGSSDLWALQQDGREISQRVQGNWRCNSGQAVLDAALQGIGLCQLPDYYVLEHLNSGALVSLLEAHQPPNTAVWALYPQQRHLSPKVRRLVDYLKEGLAGLPEYRFG	failed
MSSSEIQTKNSEVQVKEMVAHKWDLASETFDTHAGHGIQTQKERDAWKRAFLKVFPGKSLKILDVGCGTGELSLLFAEMGHEVAGIDISGQMLKIAKAKAEALGADITFREGDAENPPFDTSSYDIVFSRHLLWTLPNPKVAVENWNRILRKNGKVVIVDGVWDSGTLGSRARKNAGALLTLLLERKDPRKGHSDYSDELKAQLPHFGGAPLEKVNEYLSNSGFGNIQIFDLKEVRDAQKEKMPLGERVVRSYQYYLICGRK	failed
MSSSRSSWNTRAETGADVPVIRDIVRAAFPTPEEAALVDALRADAGAWIEGLSLVAVDDSDRPVGHALLTRCHIGDSPALCLAPVAVRPEHQNSGAGAAAVRAALAAAGRLGEHHVVVLGHPEYYPRFGFGRASAHGIRLSIDVPDEALMVLTLDAAHPLPAGTVRYAAPFGI	failed
MSSSTALAPSTAPNIIQGGMGIGVSSWRLARHVARRGEIGIVSGTGIDSVVVRELQEGDPHDRRQMLADYPDEEIADHLVERFYRPDGLPADEPYDLLNMHPFEPSVRSQRILAAATYTEVRLAAAGHEGMIGMNLLAKLKRYTLPCIYGALLSDIDIVSIGAGIPLEEARQIPKLAAGEPAALRLDVDTSQAPDADDSYAYRFDPADVLDAPPTLDRPLFLPIISSDALARIMDAKLPDRRVDGWVVEGPVAGGHNAPPRNKNYADDGTPLYDERDEADLEAIRSLGKPFYLAGGHGSPEGLRAAHEAGAAGIQVGSLFSLTDESGYPPSTTRRLIRGLHTGEIEVSTEGRVSSTGFPFKVLTADGTLADAEVYERRARICDLGYLREPYLDEEGRLMGRCPAEPVKTYVSRGGAPEETEGRACLCNALMANIGLGQQRGARAEPPLFTGGDALEDLPLGSAEDPQYDADDVLNYLYQDVRPPRVSSPLRRPQPAD	failed
MSSSTERPALPLNECDPHWLRNLWVCVFGVFTTIVAMTLLLPFLPLYVEQLGVDNHAAVVLWSGATYGATFLSAAITAPLWGRLGDRYGRKLMLIRASLGMAVAMSLIGLAQTVWQLLLLRLLAGLLGGYASGATILVATQTPKARSGWALGVLSSGIMAGSLAGPLMGGVLPPLIGIRNTFFLAGGVIFITFLATLLLLREMPRKAPSRATDSALPAVVKLSGEQRRMITCMFVVASLVMFSTMSVEPIITVYLRQLKTDNVTMMAGVVMSATALGSILAASRLGRLADRIGYLPVLTSCLAMTALTLIPQAWVSNVWQLAALRFFMGLALGGLLPCVAAIIRHTVPNEVAGRMLGYSTSSQYLGQVLGPLAGGLLGGYLGIGSVFLGTAMVLAACSIMVGRMDMIRTPASSKL	failed
MSSSTNDYNDGNNNGVYPLSLYLSSLSGHQDIIHNPYNHQLKASPGHMVSAVPESLIDYMAFKSNNVVNQQGFEFPEVSKEIKKVVKKDRHSKIQTAQGIRDRRVRLSIGIARQFFDLQDMLGFDKASKTLDWLLKKSRKAIKEVVQAKNLNNDDEDFGNIGGDVEQEEEKEEDDNGDKSFVYGLSPGYGEEEVVCEATKAGIRKKKSELRNISSKGLGAKARGKAKERTKEMMAYDNPETASDITQSEIMDPFKRSIVFNEGEDMTHLFYKEPIEEFDNQESILTNMTLPTKMGQSYNQNNGILMLVDQSSSSNYNTFLPQNLDYSYDQNPFHDQTLYVVTDKNFPKGKVWIQDSFVN	failed
MSSVGDFEEIILHDLKPYYHVPGAIHSEGITFVKETGTLLWVDIFKGEVHKVEDIEQPESSHSFFSISRANYGKNASIEYPPNPDELKESVGCIFPILDGASQNEIKQVLFGSKFGIGKLDFSKSEWEYVILYSECPELSTDRAYKLRSNDGNVSPDGKYIYVGLMSDFPFDLEPIGCLLRVDLLAHKIELVWNCLLIPNAIHWDESDQKTMYVTDSLNFTIWKCPGGDLLKRDELIDVKNSNNQSFESPEPDGSAIWFSKDGKHSGFLFITVWSTSKVQMFDLTNGKLLKEFILPEQTPRVSCCCFVGKDLFVTTANAEINDAVRTNTDKNGGCIYKIPNVLDGNVPLESTKRQPLH	failed
MSSVLSFALAAWRRLRGYRDSLEVAGGLLAGNLFDTINMVVISMFSNYLVGQRGLLALYPQLSALTGGLLLSLSSRAISNHVLGGAGPEVYLTGLAVSAASGIFLTTVFSTATSIALGLEPVMMVPAALITLLGVLLVLTLLTWIIIVMLLRLGVSPDNVMPAILTSIIDMAVLILAIVAFSMVSRMDEGIYLVAVVTFSLALAFSAAAYDFRLTIDTTFSNFALQVVEMIAGVLLSATAPVLAATGLLPVLPPLNKLAGSVAGSMASAATTSVSLYGHYLDLPSMISTLFKITVGAIPSALYIGVIGYVLASVGEGSVGPQIVLASLLVSIVLSILGSLIAWLLVVVSIRAGLDPDAIAMPLATSLVDLLGVVSLSVVAWILLST	failed

Reference: a protein production outcome set (Wang et al. 2014)
